From paper PMC8524320
No end group written: not given here. *: point of attachment. TAMRA = 5-carboxytetramethylrhodamine, CN(C)c1ccc2c(-c3ccc(C(=O)*)cc3C(=O)[O-])c3ccc(N(C)C)cc3[o+]c2c1

What was measured:
[1] = target: HLA-A*68:02^N86Q on the surface of HeLaM-HLA-ABC^KO cells (human); experiment: flow cytometry on cells; competition: surface MHC-I pre-loaded with 10 nM fluorescent peptide in the presence of TAPBPR (100 nM for HLA-A*68:02 WT, 10 nM for N86Q and S88R), washed, then 0, 100 nM or 1000 nM recombinant TAPBPR for 30 min; loss of bound peptide against no TAPBPR
[2] = target: HLA-A*68:02^S88R on the surface of HeLaM-HLA-ABC^KO cells (human); experiment: as above
[3] = target: HLA-A*68:02^WT on the surface of HeLaM-HLA-ABC^KO cells (human); experiment: as above
[4] = target: HLA-A*68:02^N86Q on the surface of HeLaM-HLA-ABC^KO cells (human); experiment: flow cytometry on cells; competition: cells treated with 1 μM soluble TAPBPR for 30 min at 37 °C, washed, then 0, 10 nM or 100 nM high-affinity peptide for 15 min (methods: 30 min); loss of bound TAPBPR (PeTe-4) against no peptide
[5] = target: HLA-A*68:02^S88R on the surface of HeLaM-HLA-ABC^KO cells (human); experiment: as above
[6] = target: HLA-A*68:02^WT on the surface of HeLaM-HLA-ABC^KO cells (human); experiment: as above

Question: What does the source list for “recombinant soluble TAPBPR^WT (lumenal domains, C-terminal His6) (from UniProt Q9BX59 19-405) (domain or fragment)”?
Answer: % loss of pre-loaded YVVPFVAK*V in the presence of TAPBPR (up to) [1]: 30%; % of pre-loaded ETVSK*QSNV dissociated by 100 nM TAPBPR [1]: 50%; % of pre-loaded ETVSK*QSNV dissociated by 1 μM TAPBPR [1]: 85%; % loss of pre-loaded YVVPFVAK*V in the presence of TAPBPR (up to) [2]: 50%; % of pre-loaded ETVSK*QSNV dissociated by 100 nM TAPBPR [2]: 75%; % of pre-loaded ETVSK*QSNV dissociated by 1 μM TAPBPR [2]: > 90%; % of pre-loaded ETVSK*QSNV dissociated by 1 μM TAPBPR [3]: 30%

Question: YVVPFVAK(TAMRA)V [YVVPFVAK*V (TAMRA-labelled peptide specific for HLA-A*68:02)] was tested. Which % of bound TAPBPR displaced by the peptide [4] did it give?
Answer: 86%

Question: What about the % of bound TAPBPR displaced by the peptide [5] of the same molecule?
Answer: 83%

Question: And the % of bound TAPBPR displaced by the peptide [6]?
Answer: 92%

Question: How did the % of bound TAPBPR dissociated by the peptide [4] turn out when ETVSK(TAMRA)QSNV [ETVSK*QSNV (TAMRA-labelled peptide specific for HLA-A*68:02)] was run?
Answer: 70%

Question: And the % of bound TAPBPR dissociated by the peptide [5]?
Answer: 60%

Question: And the % of bound TAPBPR dissociated by the peptide [6]?
Answer: 85%
